From article PMC6938032 (2020)

T1: Neutrophil elastase (Homo sapiens, UniProt P08246)
T1 chain: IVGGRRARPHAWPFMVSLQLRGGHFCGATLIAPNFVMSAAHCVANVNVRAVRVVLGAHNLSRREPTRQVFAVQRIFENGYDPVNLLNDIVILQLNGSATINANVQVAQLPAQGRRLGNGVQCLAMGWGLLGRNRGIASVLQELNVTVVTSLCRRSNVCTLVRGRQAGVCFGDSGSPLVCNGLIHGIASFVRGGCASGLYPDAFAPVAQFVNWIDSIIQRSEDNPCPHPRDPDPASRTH


Key:
[1] = molecular target: Neutrophil elastase (Homo sapiens) (UniProt P08246); test: progress curve inhibition analysis; conditions: cited from earlier work
Neutrophil elastase [2] = molecular target: T1, Neutrophil elastase; test: SPR
Neutrophil elastase [3] = molecular target: T1, Neutrophil elastase; test: progress curve inhibition analysis

Molecule | Ki [1] | Kd (Neutrophil elastase [2]) | Ki (Neutrophil elastase [3])
EapH1 (from UniProt A0A0H3KEC5) | 0.021 nM |  | 
EapH2 (protein) AEKDKLPATQKAKEMQNVPYTIAVDGIMAFNQSYLNLPKDSQLSYLDLGNKVKALLYDERGVTPEKIRNAKSAVYTITWKDGSKKEVDLKKDSYTANLFDSNSIKQIDINVKTK |  | 2.16 nM | 2.11 nM
